Measurements from US20150258192A1, “COMPOSITIONS AND METHODS FOR PREVENTING OR TREATING CHRONIC LUNG ALLOGRAFT DYSFUNCTION (CLAD) AND IDIOPATHIC PULMONARY FIBROSIS (IPF)” (priority 2014, published 2015).
No end group written: not given here.

Columns and labels:
Experiment in all cases: Kinase Profiling Assay
Assay type in all cases: biochemical
Details in all cases: peptide 100 μM
AMPKα1(h) = AMPKα1(h) (Homo sapiens, UniProt Q13131)
Method: (§1) Every kinase activity measurement was conducted in duplicate.
(§2) Specifically, in these assays, a positively charged substrate is phosphorylated with a radiolabeled phosphate group from an ATP if the kinase is not inhibited by an inhibitor peptide. The positively charged substrate then is attracted to a negatively charged filter membrane, quantified with a scintillation counter, and compared to a 100% activity control.
(§3) In addition to determining the IC50 of the compound, the specificity of MK2 inhibitory peptides was assessed by examining activities of all 266 human kinases available for testing in the Millipore kinase profiling service (Table 1).

IRAK4(h) = molecular target: T1, IRAK4(h) (Homo sapiens, UniProt Q9NWZ3)
T1 construct: purchased Millipore
T1 sequence (Q9NWZ3 1-460): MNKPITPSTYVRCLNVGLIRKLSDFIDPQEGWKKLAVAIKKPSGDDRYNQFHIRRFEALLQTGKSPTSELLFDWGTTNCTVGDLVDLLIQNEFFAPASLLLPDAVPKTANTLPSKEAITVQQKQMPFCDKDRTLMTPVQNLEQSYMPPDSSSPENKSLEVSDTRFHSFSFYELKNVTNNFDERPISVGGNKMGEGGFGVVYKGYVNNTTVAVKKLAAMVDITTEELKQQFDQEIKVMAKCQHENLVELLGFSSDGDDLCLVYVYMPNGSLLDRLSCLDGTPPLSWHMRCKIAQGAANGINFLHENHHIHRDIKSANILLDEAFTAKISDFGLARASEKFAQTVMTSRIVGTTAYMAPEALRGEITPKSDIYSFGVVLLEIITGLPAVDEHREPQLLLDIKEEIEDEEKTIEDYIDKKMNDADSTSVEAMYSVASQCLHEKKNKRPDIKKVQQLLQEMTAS
Method: as §1, §2, §3

MAPKAP-K2(h) = molecular target: T2, MAPKAP-K2(h) (Homo sapiens, UniProt P49137)
T2 construct: purchased Millipore
Method: as §1, §2, §3

Met(M1268T)(h) = molecular target: T3, Met(M1268T)(h) (Homo sapiens, UniProt P08581, M1250T)
T3 construct: purchased Millipore
Method: as §1, §2, §3

Met(Y1248C)(h) = molecular target: T4, Met(Y1248C)(h) (Homo sapiens, UniProt P08581, Y1230C)
T4 construct: purchased Millipore
Method: as §1, §2, §3

Met(h) = molecular target: T5, Met(h) (Homo sapiens, UniProt P08581)
T5 construct: purchased Millipore
Method: as §1, §2, §3

PTK5(h) = PTK5(h) (Homo sapiens, UniProt P42685)
Method: as §1, §2, §3

Pim-3(h) = Pim-3(h) (Homo sapiens, UniProt Q86V86)
Method: as §1, §2, §3

Tec(h) activated = molecular target: T6, Tec(h) activated (Homo sapiens, UniProt P42680)
T6 construct: purchased Millipore
T6 sequence (P42680 1-631): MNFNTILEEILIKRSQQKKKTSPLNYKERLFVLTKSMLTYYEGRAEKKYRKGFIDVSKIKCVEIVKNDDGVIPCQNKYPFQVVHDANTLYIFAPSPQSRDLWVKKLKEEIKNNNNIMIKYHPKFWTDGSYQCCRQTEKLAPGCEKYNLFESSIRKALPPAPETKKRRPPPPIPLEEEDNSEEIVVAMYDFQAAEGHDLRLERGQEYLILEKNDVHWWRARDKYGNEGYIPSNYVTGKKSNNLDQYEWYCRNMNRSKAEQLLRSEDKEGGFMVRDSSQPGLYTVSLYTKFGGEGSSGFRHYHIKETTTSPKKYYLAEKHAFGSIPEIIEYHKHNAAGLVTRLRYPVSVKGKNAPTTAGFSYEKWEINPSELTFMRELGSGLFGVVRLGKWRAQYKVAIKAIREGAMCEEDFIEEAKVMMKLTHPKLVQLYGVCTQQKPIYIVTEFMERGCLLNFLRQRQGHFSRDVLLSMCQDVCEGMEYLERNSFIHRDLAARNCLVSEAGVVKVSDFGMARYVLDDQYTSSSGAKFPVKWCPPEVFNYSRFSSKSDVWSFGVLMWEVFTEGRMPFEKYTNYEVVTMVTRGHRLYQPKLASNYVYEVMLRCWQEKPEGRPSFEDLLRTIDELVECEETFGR
Method: as §1, §2, §3

Flt4(h) = Flt4(h) (Homo sapiens, UniProt P35916)
Method: as §1, §2, §3

MLCK(h) = molecular target: T7, MLCK(h) (Homo sapiens, UniProt Q9H1R3)
T7 construct: purchased Millipore
Method: as §1, §2, §3

SGK(h) = molecular target: T8, SGK(h) (Homo sapiens, UniProt O00141)
T8 construct: purchased Millipore
T8 sequence (O00141 1-431): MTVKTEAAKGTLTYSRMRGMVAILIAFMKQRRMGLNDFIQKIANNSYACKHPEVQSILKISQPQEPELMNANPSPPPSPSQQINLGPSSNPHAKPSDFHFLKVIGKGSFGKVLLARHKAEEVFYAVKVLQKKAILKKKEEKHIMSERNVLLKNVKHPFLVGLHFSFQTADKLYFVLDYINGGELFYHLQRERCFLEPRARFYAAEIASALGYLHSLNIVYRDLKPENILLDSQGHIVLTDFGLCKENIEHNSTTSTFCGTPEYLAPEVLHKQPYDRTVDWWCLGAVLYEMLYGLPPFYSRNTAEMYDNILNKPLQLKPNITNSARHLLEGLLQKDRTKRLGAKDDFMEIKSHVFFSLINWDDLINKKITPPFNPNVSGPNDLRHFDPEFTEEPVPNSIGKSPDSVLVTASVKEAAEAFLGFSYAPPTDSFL
Method: as §1, §2, §3

Rsk3(h) = molecular target: T9, Rsk3(h) (Homo sapiens, UniProt Q15349)
T9 construct: purchased Millipore
Method: as §1, §2, §3

SGK2(h) = molecular target: T10, SGK2(h) (Homo sapiens, UniProt Q9HBY8)
T10 construct: purchased Millipore
T10 sequence (Q9HBY8 1-367): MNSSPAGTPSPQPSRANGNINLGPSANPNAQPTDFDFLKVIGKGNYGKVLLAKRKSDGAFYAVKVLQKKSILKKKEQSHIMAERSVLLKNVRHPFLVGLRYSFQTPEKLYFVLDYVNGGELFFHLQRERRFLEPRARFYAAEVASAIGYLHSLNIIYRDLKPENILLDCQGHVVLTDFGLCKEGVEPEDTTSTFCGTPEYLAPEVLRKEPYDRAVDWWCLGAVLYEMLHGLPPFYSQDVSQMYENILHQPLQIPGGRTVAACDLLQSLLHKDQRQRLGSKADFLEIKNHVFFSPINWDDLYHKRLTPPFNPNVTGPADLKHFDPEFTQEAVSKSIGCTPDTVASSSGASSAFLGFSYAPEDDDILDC
Method: as §1, §2, §3

Sequence of Flt4(h) (P35916 25-1363): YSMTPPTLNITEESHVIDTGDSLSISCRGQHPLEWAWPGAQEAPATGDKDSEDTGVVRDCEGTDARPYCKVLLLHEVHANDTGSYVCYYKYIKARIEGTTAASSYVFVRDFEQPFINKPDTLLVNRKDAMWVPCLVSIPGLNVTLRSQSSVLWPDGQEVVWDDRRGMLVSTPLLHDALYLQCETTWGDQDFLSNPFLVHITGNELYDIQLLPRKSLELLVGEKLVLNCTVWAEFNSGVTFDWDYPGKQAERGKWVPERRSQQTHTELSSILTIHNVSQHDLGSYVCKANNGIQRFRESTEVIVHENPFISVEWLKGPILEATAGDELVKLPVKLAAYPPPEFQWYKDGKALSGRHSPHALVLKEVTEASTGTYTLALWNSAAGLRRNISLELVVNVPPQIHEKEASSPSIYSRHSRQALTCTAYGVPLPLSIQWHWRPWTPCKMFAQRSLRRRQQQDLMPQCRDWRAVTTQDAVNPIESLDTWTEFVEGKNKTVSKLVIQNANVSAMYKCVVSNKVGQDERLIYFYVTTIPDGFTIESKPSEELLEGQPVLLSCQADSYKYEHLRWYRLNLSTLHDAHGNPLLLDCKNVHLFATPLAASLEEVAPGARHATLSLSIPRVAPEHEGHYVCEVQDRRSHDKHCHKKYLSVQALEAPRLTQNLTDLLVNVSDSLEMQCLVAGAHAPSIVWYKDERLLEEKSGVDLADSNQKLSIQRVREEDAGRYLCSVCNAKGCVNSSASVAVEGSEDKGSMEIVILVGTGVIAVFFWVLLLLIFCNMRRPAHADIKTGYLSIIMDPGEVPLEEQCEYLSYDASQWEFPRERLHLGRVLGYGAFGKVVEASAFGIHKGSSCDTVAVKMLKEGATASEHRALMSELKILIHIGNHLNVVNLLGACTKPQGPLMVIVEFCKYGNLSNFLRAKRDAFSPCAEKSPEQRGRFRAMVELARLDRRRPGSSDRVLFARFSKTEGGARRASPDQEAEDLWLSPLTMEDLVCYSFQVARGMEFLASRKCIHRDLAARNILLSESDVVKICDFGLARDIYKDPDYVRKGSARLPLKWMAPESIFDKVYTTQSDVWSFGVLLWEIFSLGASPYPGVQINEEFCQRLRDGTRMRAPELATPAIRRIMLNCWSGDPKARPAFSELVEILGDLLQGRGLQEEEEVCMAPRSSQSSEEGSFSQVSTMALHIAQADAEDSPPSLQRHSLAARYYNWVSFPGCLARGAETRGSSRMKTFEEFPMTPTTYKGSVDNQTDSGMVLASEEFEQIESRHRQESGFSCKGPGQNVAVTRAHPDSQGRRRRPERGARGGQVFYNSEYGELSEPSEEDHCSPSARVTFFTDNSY
T7 sequence (Q9H1R3 2-596 limits assumed): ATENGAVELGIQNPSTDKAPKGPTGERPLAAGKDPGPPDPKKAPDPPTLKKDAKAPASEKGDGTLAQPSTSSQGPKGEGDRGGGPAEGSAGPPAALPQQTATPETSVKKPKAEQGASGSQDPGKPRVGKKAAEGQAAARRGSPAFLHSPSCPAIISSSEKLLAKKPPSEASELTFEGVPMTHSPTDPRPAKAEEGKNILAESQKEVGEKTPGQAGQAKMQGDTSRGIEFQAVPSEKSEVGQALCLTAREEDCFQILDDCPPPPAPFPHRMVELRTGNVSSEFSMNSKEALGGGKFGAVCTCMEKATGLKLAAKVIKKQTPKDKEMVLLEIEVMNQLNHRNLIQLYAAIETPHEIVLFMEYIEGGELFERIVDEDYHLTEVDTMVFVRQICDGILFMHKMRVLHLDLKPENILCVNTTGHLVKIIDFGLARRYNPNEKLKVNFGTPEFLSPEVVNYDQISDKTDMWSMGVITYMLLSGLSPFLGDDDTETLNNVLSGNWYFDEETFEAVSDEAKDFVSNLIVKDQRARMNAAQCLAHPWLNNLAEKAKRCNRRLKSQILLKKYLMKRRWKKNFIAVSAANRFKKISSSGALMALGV
T2 sequence (P49137 whole entry): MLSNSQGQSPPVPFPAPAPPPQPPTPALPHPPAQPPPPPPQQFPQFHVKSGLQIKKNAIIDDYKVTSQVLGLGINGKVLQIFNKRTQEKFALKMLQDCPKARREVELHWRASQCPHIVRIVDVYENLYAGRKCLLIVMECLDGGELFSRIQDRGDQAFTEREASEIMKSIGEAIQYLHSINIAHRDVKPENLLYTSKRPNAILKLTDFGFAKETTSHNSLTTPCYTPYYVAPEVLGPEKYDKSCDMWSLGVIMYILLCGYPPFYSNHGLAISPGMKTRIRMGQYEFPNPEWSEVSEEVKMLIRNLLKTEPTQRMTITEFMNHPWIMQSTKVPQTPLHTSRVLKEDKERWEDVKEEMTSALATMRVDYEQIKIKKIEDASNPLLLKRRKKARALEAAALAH
T9 sequence (Q15349 whole entry): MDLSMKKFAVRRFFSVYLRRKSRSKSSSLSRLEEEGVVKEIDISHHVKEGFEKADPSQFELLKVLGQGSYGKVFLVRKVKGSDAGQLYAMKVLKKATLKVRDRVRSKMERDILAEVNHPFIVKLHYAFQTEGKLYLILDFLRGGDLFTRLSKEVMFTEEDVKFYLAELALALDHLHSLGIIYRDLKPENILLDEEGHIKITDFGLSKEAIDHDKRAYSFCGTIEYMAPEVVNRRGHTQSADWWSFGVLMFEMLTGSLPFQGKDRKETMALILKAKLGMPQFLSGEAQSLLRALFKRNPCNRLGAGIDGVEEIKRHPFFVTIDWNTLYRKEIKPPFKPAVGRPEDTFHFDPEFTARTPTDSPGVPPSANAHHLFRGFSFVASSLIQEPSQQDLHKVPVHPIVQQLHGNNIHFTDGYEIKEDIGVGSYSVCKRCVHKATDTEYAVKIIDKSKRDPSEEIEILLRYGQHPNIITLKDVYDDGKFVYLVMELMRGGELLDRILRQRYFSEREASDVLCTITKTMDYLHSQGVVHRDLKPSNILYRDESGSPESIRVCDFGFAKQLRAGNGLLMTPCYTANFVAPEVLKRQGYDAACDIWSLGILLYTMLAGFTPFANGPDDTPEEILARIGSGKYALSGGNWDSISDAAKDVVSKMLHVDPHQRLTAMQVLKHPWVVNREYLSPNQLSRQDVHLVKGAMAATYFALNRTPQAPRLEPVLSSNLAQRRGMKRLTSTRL
Sequence of AMPKα1(h) (Q13131 whole entry): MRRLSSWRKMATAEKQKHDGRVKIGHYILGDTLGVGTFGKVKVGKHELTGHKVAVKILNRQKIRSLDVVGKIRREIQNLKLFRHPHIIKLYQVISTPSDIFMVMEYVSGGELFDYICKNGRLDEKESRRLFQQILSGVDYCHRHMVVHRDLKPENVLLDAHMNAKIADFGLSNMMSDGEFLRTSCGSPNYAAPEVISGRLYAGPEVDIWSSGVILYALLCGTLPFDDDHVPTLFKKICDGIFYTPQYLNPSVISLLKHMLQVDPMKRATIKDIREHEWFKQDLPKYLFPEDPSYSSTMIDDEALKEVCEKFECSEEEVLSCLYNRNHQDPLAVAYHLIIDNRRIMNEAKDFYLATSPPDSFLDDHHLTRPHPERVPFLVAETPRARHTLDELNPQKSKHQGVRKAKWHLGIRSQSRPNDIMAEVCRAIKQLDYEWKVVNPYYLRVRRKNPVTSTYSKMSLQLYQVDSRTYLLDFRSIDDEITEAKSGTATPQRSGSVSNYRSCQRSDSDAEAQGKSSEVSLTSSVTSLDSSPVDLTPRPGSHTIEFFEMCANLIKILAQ
Sequence of AMPKα1(h) (Q9Y478 whole entry partner): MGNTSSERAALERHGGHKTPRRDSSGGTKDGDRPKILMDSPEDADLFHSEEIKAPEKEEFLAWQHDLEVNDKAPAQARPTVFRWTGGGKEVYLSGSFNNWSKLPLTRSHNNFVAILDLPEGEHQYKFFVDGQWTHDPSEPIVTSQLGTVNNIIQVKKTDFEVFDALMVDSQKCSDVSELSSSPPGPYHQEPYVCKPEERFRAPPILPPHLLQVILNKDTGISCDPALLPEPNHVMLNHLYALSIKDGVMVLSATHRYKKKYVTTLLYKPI
Sequence of AMPKα1(h) (P54619 whole entry partner): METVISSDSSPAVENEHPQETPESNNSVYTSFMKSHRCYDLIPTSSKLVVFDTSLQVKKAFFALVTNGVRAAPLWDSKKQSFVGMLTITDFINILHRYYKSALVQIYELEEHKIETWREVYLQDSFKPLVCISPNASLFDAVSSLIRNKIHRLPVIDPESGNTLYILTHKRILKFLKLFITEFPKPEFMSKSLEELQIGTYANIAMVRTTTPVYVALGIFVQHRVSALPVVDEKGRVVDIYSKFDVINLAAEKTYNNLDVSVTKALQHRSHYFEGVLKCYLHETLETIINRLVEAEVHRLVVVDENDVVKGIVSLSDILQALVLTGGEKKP
Sequence of PTK5(h) (P42685 whole entry): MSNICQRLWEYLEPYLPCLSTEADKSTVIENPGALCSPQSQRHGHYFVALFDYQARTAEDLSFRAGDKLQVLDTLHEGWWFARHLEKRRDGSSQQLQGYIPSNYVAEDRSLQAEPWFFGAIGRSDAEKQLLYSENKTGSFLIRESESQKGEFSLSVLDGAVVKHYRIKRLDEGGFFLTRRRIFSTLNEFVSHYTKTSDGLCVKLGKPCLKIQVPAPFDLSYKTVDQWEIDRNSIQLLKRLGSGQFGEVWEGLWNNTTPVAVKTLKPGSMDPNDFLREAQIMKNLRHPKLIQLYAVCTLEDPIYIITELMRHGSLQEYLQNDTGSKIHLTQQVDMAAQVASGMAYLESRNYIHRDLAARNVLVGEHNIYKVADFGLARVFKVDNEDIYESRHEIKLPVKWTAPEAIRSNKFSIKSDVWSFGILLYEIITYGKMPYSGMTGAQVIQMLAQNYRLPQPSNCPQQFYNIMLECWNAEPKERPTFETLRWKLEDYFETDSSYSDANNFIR

Sequence | % activity (AMPKα1(h)) | % activity (IRAK4(h)) | % activity (MAPKAP-K2(h)) | % activity (Met(M1268T)(h)) | % activity (Met(Y1248C)(h)) | % activity (Met(h)) | % activity (PTK5(h)) | % activity (Pim-3(h)) | % activity (Tec(h) activated) | % activity (Flt4(h)) | % activity (MLCK(h)) | % activity (SGK(h)) | % activity (Rsk3(h)) | % activity (SGK2(h))
YARAAARQARAKALNRQLGVA (Mammal) [MMI-0200] | 108% | 110% | 35% | 143% | 141% | 71% | 108% | 94% | 77% | – | – | – | – | –
YARAAARQARAKALARQLGVAA [MMI-0100] | – | – | 19% | – | 77% | – | 135% | – | 100% | 135% | 85% | 128% | – | –
HRRIKAWLKKIKALARQLGVAA (Mammal) [MMI-0500] | 35% | 3% | 9% | 239% | 73% | 27% | 96% | 37% | 33% | 73% | 0% | 2% | 23% | -1%
KAFAKLAARLYRKALARQLGVAA [MMI-0400] | 87% | 59% | 5% | 265% | 36% | 62% | 129% | 80% | 29% | 89% | 1% | 54% | 71% | 98%
FAKLAARLYRKALARQLGVAA [MMI-0300] | 71% | 59% | 5% | 255% | 84% | 65% | 132% | 80% | 56% | 83% | 2% | 48% | 76% | 56%
